Data on one sequence can be found in US20220333113.

Common to all, as to test: filter
Common to all, as to settings: J = PPdU at every J; SB18T0.01 + 1 mM DTT, 37 C

The target of data set [1] is T1, RIG-I helicase domain (aa 229-793) (Homo sapiens) (UniProt O95786).
T1 sequence: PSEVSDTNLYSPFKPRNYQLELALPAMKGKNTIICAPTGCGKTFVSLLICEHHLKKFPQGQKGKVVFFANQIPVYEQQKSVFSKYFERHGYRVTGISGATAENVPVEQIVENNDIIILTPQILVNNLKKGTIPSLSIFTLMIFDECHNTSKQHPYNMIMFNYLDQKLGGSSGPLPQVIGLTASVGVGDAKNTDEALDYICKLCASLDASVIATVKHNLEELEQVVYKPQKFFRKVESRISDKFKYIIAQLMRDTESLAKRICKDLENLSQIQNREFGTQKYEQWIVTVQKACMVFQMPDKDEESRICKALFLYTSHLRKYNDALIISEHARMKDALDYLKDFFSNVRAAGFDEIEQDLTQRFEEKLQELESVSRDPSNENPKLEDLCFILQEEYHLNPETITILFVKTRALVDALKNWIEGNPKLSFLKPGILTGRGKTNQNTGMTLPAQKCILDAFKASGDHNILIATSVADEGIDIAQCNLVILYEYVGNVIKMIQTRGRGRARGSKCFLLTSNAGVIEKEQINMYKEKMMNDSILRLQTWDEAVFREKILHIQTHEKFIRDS

Data set [2] concerns the target T2, RIG-I WT full-length (Homo sapiens) (UniProt O95786).
T2 sequence: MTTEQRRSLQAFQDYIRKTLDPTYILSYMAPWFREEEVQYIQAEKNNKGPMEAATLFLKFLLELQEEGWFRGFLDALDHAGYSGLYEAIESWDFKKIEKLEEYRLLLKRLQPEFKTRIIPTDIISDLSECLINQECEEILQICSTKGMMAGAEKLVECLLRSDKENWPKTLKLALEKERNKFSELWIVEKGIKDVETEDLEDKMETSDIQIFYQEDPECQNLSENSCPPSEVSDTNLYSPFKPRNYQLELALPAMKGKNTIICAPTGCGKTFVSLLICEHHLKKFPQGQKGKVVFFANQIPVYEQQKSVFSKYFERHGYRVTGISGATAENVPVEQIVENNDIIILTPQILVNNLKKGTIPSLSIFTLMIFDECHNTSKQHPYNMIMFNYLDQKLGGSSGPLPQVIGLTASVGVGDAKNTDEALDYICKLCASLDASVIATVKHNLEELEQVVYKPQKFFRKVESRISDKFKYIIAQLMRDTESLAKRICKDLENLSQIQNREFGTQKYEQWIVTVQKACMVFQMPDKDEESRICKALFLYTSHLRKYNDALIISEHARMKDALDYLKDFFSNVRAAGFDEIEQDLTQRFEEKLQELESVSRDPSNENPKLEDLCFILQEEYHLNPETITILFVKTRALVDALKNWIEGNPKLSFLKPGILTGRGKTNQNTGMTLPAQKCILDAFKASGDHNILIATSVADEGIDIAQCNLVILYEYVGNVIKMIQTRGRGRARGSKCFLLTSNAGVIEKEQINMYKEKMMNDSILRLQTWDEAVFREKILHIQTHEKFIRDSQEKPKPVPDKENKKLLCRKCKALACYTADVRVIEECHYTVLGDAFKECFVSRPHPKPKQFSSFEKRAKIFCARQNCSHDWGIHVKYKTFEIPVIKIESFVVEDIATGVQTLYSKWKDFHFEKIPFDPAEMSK

Data set [3] concerns the target T3, RIG-I K849A (Homo sapiens) (UniProt O95786).
T3 sequence: T2 sequence with K849A

Numbering of substitutions follows the chain as printed. pKd: −log10 of the molar value.

One may read the pKd as the negative decadic logarithm of the Kd, by convention in mol/L. As to “ATCTCTGTGTCATGTGTTTTAATGTCAGTTTAATGATGAGG [14832-55_8]”, the negative-log Kd (pKd) was 8.00 in data set [1], 9.25 in data set [2] and 9.21 in data set [3].
